Results on one molecule are retold here after patent publication US20170137467A1 (CHROMOTEK, published 2017).

Common to all, as to assay: peptide library pulldown on immobilized Nb, LC-MS of supernatant; ratio vs GFP-Nb control (1 = not captured, 0 = captured)
Assay [1] concerns the target T1, BC2T S8(I/L) library peptide, version 2 (N-terminal acetyl, C-terminal amide).
T1 construct: Ile and Leu versions are isobaric; two versions resolved but not assigned; also called BC2TS8X: I/L2
An outline of the steps: (§1)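 Unbound peptide left in supernatant after 1 h pulldown in PBS/0.01% CHAPS measured by reversed-phase LC-MS (8–30% eluent B gradient, 20 min).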

For the next assay, the target named is T2, BC2T S8R library peptide (human).
T2 construct: also called BC2TS8X: R
T2 peptide: Ac-PDRKAAVRHWQQ-NH2
An outline of the steps: as §1

For a further assay, the target named is T3, BC2T S8E library peptide (human).
T3 construct: also called BC2TS8X: E
T3 peptide: Ac-PDRKAAVEHWQQ-NH2
An outline of the steps: as §1

For a further assay, the target named is T4, BC2T H9Y library peptide (human).
T4 peptide: Ac-PDRKAAVSYWQQ-NH2
An outline of the steps: as §1

Assay [2] addresses T5, BC2T H9C* library peptide (human, SMILES …).
T5 construct: also called C(Abu)
T5 peptide: Ac-PDRKAAVS[GABA]WQQ-NH2
An outline of the steps: as §1

Another assay concerns the target T6, BC2T H9E library peptide (human).
T6 peptide: Ac-PDRKAAVSEWQQ-NH2
An outline of the steps:
as §1

For assay [3], the target named is T7, BC2T W10P library peptide (human).
T7 construct: also called BC2TW10X: P
T7 peptide: Ac-PDRKAAVSHPQQ-NH2
An outline of the steps: as §1

In assay [4] the target is T8, BC2T W10Q library peptide (human).
T8 construct: also called BC2TW10X: Q
T8 peptide: Ac-PDRKAAVSHQQQ-NH2
An outline of the steps:
as §1

The target in assay [5] is T9, BC2T W10H library peptide (human).
T9 construct: also called BC2TW10X: H
T9 peptide: Ac-PDRKAAVSHHQQ-NH2
An outline of the steps:
as §1

In assay [6] the target is T10, BC2T W10E library peptide (human).
T10 construct: also called BC2TW10X: E
T10 peptide: Ac-PDRKAAVSHEQQ-NH2
An outline of the steps: as §1

The target of assay [7] is T11, BC2T Q11G library peptide (human).
T11 peptide: Ac-PDRKAAVSHWGQ-NH2
An outline of the steps:
as §1

Assay [8] deals with T12, BC2T Q11V library peptide (human).
T12 peptide: Ac-PDRKAAVSHWVQ-NH2
An outline of the steps: as §1

Assay [9] addresses T13, BC2T Q11(I/L) library peptide, version 1 (N-terminal acetyl, C-terminal amide).
T13 construct: Ile and Leu versions are isobaric; two versions resolved but not assigned; also called I/L1
An outline of the steps: as §1

Assay [10] deals with T14, BC2T Q11M library peptide (human).
T14 peptide: Ac-PDRKAAVSHWMQ-NH2
An outline of the steps: as §1

The target of assay [11] is T15, BC2T Q11P library peptide (human).
T15 peptide: Ac-PDRKAAVSHWPQ-NH2
An outline of the steps:
as §1

The target of assay [12] is T16, BC2T Q11W library peptide (human).
T16 peptide: Ac-PDRKAAVSHWWQ-NH2
An outline of the steps:
as §1

Assay [13] deals with T17, BC2T Q11Y library peptide (human).
T17 peptide: Ac-PDRKAAVSHWYQ-NH2
An outline of the steps:
as §1

For another assay, the target named is T18, BC2T S8A library peptide (human).
T18 construct: also called BC2TS8X: A
T18 peptide: Ac-PDRKAAVAHWQQ-NH2
An outline of the steps:
as §1

Assay [14] addresses T19, BC2T Q12S library peptide (human).
T19 peptide: Ac-PDRKAAVSHWQS-NH2
An outline of the steps: as §1

Assay [15] concerns the target T20, BC2T Q12K library peptide (human).
T20 peptide: Ac-PDRKAAVSHWQK-NH2
An outline of the steps:
as §1

Square brackets hold non-standard residues; d marks the D form. GABA = NCCCC(=O)O

B1: BC2-Nb(R106E) (VHH)
VHH: QVQLVESGGGLVQPGGSLTLSCTASGFTLDHYDIGWFRQAPGKEREGVSCINNSDDDTYYADSVKGRFTIFMDNAKDTVYLQMNSLKPEDTAIYYCAEARGCKRGEYEYDFWGQGTQVTVSS
notes: Headlock mutant; immobilized on beads in the library pulldown
B1: the ratio in [1] turned out to be 0.9; with BC2T S8R library peptide, 0.9; with BC2T S8E library peptide, 0.9; in the assay with BC2T H9Y library peptide, 0.1; in assay [2], 0.3; with BC2T H9E library peptide, 0.5. Moreover, the ratio in assay [3] was 1.1; in assay [4] it was 1.2; in assay [5], 1.2; in [6] it was 1.2; in [7], 0.4; in [8], 0.2. For the same molecule, the ratio in [9] worked out at 0.2; in [10] it was 0.2; in [11] it was 0.9; in assay [12], 0.1; in assay [13], 0.1; in the assay with BC2T S8A library peptide it was 0.1. The ratio in [14] is 0.1; in assay [15], 0.
